Tests used:
Test in all cases: cell-based or functional assay
[1] = target: murine IL-12 receptor on mouse CD14- PBMC (mouse) (UniProt P97378)
[2] = target: rat IL-12 receptor on rat PBMC (rat)
[3] = target: human IL-12 receptor on human CD14- PBMC (human, UniProt Q99665 24-862)
Chain of human IL-12 receptor on human CD14- PBMC (Q99665 24-862): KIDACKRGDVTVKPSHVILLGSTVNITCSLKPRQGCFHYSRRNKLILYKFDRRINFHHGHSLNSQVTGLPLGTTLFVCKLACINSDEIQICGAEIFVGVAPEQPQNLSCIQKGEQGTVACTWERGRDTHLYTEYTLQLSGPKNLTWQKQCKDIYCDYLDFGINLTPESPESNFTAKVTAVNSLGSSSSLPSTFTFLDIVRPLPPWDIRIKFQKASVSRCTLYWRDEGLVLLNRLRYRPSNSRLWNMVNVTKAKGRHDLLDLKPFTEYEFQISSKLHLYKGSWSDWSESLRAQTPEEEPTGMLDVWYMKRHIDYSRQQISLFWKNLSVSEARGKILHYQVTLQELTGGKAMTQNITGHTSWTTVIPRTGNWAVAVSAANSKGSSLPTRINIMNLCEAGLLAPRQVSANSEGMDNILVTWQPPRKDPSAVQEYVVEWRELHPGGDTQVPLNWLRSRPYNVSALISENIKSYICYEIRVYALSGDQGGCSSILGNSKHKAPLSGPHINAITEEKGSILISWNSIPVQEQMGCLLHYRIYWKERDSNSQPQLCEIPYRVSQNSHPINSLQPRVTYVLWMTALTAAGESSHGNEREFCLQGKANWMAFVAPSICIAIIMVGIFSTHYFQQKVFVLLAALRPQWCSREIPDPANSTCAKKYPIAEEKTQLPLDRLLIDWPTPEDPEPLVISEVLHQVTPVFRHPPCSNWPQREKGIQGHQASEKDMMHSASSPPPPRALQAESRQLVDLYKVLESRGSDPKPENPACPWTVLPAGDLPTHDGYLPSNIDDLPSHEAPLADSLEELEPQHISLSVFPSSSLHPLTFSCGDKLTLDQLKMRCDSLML

Chain of murine IL-12 receptor on mouse CD14- PBMC (mouse) (P97378 24-874): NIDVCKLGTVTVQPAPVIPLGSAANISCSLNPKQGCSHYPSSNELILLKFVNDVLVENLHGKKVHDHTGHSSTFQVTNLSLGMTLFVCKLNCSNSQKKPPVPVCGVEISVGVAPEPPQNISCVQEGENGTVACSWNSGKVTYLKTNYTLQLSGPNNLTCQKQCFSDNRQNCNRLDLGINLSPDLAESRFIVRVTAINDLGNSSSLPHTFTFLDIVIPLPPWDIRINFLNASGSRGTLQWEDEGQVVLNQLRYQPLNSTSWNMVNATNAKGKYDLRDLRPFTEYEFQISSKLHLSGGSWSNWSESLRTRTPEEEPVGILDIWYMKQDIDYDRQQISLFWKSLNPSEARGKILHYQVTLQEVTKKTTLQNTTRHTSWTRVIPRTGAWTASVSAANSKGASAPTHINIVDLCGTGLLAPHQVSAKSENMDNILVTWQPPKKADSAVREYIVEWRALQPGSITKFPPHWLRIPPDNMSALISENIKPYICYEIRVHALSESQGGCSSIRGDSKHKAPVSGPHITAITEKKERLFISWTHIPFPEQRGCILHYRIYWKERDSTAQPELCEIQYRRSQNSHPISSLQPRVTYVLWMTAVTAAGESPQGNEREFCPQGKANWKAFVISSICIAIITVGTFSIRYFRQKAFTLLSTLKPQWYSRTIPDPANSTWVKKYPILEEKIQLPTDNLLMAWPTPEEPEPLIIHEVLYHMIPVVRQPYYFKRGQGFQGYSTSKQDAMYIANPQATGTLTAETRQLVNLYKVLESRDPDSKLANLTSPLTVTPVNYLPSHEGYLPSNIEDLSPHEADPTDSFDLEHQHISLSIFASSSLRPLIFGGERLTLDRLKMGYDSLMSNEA

- EC50 for stimulating IFN-γ secretion from PBMC (ELISA) [1]: > 1 nM
- EC50 for stimulating IFN-γ secretion from PBMC (ELISA) [2]: > 1 nM
- EC50 for stimulating IFN-γ secretion from CD14- PBMC (ELISA, 16 hours) [3]: 0.00251 nM
B1: recombinant human IL-12 (ligand)
chain 1: RNLPVATPDPGMFPCLHHSQNLLRAVSNMLQKARQTLEFYPCTSEEIDHEDITKDKTSTVEACLPLELTKNESCLNSRETSFITNGSCLASRKTSFMMALCLSSIYEDLKMYQVEFKTMNAKLLMDPKRQIFLDQNMLAVIDELMQALNFNSETVPQKSSLEEPDFYKTKIKLCILLHAFRIRAVTIDRVMSYLNAS
chain 2: IWELKKDVYVVELDWYPDAPGEMVVLTCDTPEEDGITWTLDQSSEVLGSGKTLTIQVKEFGDAGQYTCHKGGEVLSHSLLLLHKKEDGIWSTDILKDQKEPKNKTFLRCEAKNYSGRFTCWWLTTISTDLTFSVKSSRGSSDPQGVTCGAATLSAERVRGDNKEYEYSVECQEDSACPAAEESLPIEVMVDAVHKLKYENYTSSFFIRDIIKPDPPKNLQLKPLKNSRQVEVSWEYPDTWSTPHSYFSLTFCVQVQGKSKREKKDRVFTDKTSATVICRKNASISVRAQDRYYSSSWSEWASVPCS
modifications: glycosylated (produced in CHO cells)
